Data set [1] addresses T1, DDX21Fl (human, UniProt Q9NR30 1-783).
T1 sequence: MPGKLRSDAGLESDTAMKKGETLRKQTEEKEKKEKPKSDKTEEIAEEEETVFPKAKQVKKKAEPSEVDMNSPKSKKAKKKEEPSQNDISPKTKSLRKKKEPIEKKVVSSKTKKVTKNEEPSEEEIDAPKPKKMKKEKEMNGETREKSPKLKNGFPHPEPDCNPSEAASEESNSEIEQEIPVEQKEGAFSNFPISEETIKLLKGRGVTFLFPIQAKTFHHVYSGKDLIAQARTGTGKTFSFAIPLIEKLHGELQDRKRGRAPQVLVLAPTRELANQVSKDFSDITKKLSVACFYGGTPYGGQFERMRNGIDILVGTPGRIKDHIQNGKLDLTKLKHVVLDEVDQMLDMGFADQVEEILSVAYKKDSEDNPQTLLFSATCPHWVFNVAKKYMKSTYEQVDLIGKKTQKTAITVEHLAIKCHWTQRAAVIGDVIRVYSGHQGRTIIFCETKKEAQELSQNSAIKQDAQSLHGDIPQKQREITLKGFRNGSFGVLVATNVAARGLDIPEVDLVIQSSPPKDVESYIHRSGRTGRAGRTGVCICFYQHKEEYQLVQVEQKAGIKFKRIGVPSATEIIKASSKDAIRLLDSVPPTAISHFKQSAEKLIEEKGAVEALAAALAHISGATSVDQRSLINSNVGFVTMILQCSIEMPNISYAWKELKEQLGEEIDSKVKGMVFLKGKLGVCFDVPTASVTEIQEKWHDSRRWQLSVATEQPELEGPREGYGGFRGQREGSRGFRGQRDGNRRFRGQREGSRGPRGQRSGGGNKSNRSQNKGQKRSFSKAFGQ
Description: fluorescence polarization; no ATP; 50 mM KCl; FP: 50 mM Tris pH 7.5, 50 mM KCl, 5 mM MgCl2, no ATP; Hill-slope fit; temperature not given in the material. As to conditions: protein: recombinant; tags: N-terminal Trx-His6, cut with thrombin; chain copies: 2; label: 5'-FAM; G4. A general note: In fluorescence polarisation assays a small probe gives low polarisation when free and higher when bound to something large.

The target of data set [2] is T2, DDX21Core (human, UniProt Q9NR30 186-564).
T2 sequence: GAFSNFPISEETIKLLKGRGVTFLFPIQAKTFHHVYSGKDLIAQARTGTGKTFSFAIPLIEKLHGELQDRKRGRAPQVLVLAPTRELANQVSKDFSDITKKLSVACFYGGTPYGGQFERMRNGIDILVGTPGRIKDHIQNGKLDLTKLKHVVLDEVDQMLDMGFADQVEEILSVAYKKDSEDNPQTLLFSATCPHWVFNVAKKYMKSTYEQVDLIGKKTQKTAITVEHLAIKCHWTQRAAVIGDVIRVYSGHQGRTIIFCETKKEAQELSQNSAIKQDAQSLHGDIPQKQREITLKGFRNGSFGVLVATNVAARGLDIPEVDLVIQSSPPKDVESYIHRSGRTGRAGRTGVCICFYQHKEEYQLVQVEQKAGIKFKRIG
Description: fluorescence polarization; 50 mM KCl; FP: 50 mM Tris pH 7.5, 50 mM KCl, 5 mM MgCl2, no ATP; Hill-slope fit; temperature not given in the material. As to conditions: protein: recombinant; label: 5'-FAM; G4.

Data set [3] has as its target T3, DDX21ΔNC (human, UniProt Q9NR30 186-710).
T3 sequence: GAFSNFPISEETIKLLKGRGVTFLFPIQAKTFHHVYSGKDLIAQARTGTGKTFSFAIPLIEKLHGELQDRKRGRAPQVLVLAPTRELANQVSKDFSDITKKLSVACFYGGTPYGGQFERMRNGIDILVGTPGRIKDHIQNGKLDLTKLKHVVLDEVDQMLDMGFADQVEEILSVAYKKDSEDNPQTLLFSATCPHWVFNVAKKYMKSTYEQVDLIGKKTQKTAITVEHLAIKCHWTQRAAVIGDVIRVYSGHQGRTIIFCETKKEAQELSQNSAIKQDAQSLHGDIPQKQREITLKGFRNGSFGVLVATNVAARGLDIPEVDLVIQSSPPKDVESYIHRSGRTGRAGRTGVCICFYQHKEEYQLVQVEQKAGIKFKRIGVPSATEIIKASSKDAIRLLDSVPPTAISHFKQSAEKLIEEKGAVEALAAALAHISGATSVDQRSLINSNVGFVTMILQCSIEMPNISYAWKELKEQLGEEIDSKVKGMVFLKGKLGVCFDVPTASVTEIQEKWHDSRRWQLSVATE
Description: fluorescence polarization; FP: 50 mM Tris pH 7.5, 50 mM KCl, 5 mM MgCl2, no ATP; Hill-slope fit; temperature not given in the material. As to conditions: protein: recombinant, chain copies: 2.

Data set [4] has as its target T4, DDX21ΔN (human, UniProt Q9NR30 186-783).
T4 sequence: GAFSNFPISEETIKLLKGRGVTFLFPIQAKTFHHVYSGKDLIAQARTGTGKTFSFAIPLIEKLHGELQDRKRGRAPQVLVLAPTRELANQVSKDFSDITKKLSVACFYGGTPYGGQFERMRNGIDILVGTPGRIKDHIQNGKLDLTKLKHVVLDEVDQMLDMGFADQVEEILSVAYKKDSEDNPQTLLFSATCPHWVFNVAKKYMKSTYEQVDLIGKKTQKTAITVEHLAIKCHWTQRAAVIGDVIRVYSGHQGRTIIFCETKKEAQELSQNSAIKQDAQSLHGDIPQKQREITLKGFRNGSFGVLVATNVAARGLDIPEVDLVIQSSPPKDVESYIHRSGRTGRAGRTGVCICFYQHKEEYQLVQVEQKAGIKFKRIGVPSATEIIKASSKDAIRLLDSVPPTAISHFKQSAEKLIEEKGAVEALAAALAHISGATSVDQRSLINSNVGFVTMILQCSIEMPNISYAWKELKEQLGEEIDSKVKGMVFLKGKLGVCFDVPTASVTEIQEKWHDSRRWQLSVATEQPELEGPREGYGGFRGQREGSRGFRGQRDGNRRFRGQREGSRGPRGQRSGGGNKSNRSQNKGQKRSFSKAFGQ
The description is as above. The conditions noted are these: protein: recombinant, chain copies: 2.

Data set [5] has as its target T1, DDX21Fl. Description: fluorescence polarization; no ATP; FP: 50 mM Tris pH 7.5, 50 mM KCl, 5 mM MgCl2, no ATP; Hill-slope fit; temperature not given in the material. As to conditions: protein: recombinant, tags: N-terminal Trx-His6, cut with thrombin, chain copies: 2.
[6] abbreviates: label: 5'-FAM on 15-mer, 3' overhang 15 nt.

The Kd is the constant that tells how readily two partners part at equilibrium. As for GUUGGGGCGGGCGUUGGGUUUGGGGGGACG (structured_RNA) [Q2 RNA G-quadruplex], the Kd in data set [1] amounted to 2.6 ± 0.1 nM; in data set [2] it was 62.5 ± 4.9 nM.

In the case of GUUUCGGAUCGACGC (ssRNA) [15-mer ssRNA], the Kd in data set [3] (label: 5'-FAM, single strand) turned out to be 688 ± 52.7 nM; in data set [4] (label: 5'-FAM, single strand) it was 40.3 ± 2.6 nM; in data set [5] (label: 5'-FAM, single strand) it was 30.7 ± 2.8 nM.

B1: dsRNA 15/30mer 3' overhang (dsRNA)
RNA 1: GUUUCGGAUCGACGC
RNA 2: GCGUCGAUCCGAAACUAUACUUAAUUUUAA
Regarding B1, the Kd was 217 ± 10.4 nM in data set [3] (setting [6]), 15.5 ± 0.8 nM in data set [4] (setting [6]) and 10.2 ± 0.4 nM in data set [5] (setting [6]).
